Columns and labels:
[1] = target: the molecule itself; assay: SEC-SLS; SEC with triple detection (UV, refractometer, SLS 7° and 90°, viscometer), Superdex 75 Increase 10/300 GL, 25 mM Hepes pH 7.5, 150 mM NaCl, 20°C; sample 1–5 mg/mL
[2] = target: T1, MtSteB△TM (soluble M. tuberculosis SteB devoid of its TM domain, residues 38–314) (Mycobacterium tuberculosis, UniProt P9WJ83 38-314); assay: BLI; biotinylated MtRipACC immobilised on streptavidin biosensors; Octet-Red384, 25°C; 25 mM HEPES pH 7.5, 150 mM NaCl, 5% glycerol, 1 mg/mL BSA, 0.05% Tween 20; MtSteB 200–3.125 μM or MtRipACAT 80–1.25 μM; steady-state signal, one-site binding model; apparent Kd; settings: both partners purified
T1 construct: Homodimer in both crystal structures; also called MctB; Rv1698; not shown: His6, N-terminal, cleaved; SUMO, N-terminal, cleaved
T1 sequence (P9WJ83 38-314): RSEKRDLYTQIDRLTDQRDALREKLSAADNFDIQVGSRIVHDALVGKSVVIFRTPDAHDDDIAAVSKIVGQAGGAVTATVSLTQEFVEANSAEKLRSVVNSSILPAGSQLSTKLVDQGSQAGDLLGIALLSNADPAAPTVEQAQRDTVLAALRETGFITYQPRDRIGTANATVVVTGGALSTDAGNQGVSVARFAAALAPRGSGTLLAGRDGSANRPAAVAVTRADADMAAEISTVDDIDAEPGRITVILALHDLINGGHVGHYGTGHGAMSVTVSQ

B1: MtSteA△TM (truncated soluble construct of M. tuberculosis SteA, residues 12–344) (domain or fragment)
chain: SRPGLIGIARVDRNIDRLLRRVCPGDIVVLDVLDLDRITADALVEAEIAAVVNASSSVSGRYPNLGPEVLVTNGVTLIDETGPEIFKKVKDGAKVRLYEGGVYAGDRRLIRGTERTDHDIADLMREAKSGLVAHLEAFAGNTIEFIRSESPLLIDGIGIPDVDVDLRRRHVVIVADEPSGPDDLKSLKPFIKEYQPVLVGVGTGADVLRKAGYRPQLIVGDPDQISTEVLKCGAQVVLPADADGHAPGLERIQDLGVGAMTFPAAGSATDLALLLADHHGAALLVTAGHAANIETFFDRTRVQSNPSTFLTRLRVGEKLVDAKAVATLYRNHI
notes: Dimer in solution and in the crystal; also called Rv1697; not shown: His6, N-terminal, cleaved; SUMO, N-terminal, cleaved
[1]
  stoichiometry N: 2

B2: MtRipACC (coiled-coil domain of M. tuberculosis RipA, residues 40–240) (domain or fragment)
chain: DPQTDTIAALIADVAKANQRLQDLSDEVQAEQESVNKAMVDVETARDNAAAAEDDLEVSQRAVKDANAAIAAAQHRFDTFAAATYMNGPSVSYLSASSPDEIIATVTAAKTLSASSQAVMANLQRARTERVNTESAARLAKQKADKAAADAKASQDAAVAALTETRRKFDEQREEVQRLAAERDAAQARLQAARLVAWSSE
modifications: biotin (EZ-Link NHS-PEG4-Biotin, 20 molar excess) in the BLI assays only
notes: Biotinylated and immobilised on streptavidin sensors for BLI; not biotinylated in the crystal of the complex; also called RipA coiled-coil domain; CC domain of RipA; not shown: His6, N-terminal, cleaved; SUMO, N-terminal, cleaved
[2]
  Kd: 42.6 ± 4.4 µM
